Source: PMC1635730, “Mesothelin-MUC16 binding is a high affinity, N-glycan dependent interaction that facilitates peritoneal metastasis of ovarian tumors” (Molecular Cancer, 2006)
“And” between values parts separate entries of the source, which are not always exact repeats. Identical values can stand only once.

Target: T1, MUC16 expressed on the surface of the ovarian tumor cell line OVCAR-3 (human (endogenous in OVCAR-3), UniProt Q8WXI7 1-14507)
T1 construct: also called cell surface MUC16; MUC16 on OVCAR-3 cells; source: endogenous, on OVCAR-3 cells and the control subline #12
Assay: flow cytometry on cells; OVCAR-3 cells with increasing amounts of meso-Fc for 1 h; mean fluorescence, non-linear regression (GraphPad Prism); apparent Kd
Details: one partner purified

B1: recombinant mesothelin tagged with the Fc fragment of rabbit IgG (Fc fusion, human, UniProt Q13421 296-598, looked up)
chain: EVEKTACPSGKKAREIDESLIFYKKWELEACVDAALLATQMDRVNAIPFTYEQLDVLKHKLDELYPQGYPESVIQHLGYLFLKMSPEDIRKWNVTSLETLKALLEVNKGHEMSPQVATLIDRFVKGRGQLDKDTLDTLTAFYPGYLCSLSPEELSSVPPSSIWAVRPQDLDTCDPRQLDVLYPKARLAFQNMNGSEYFVKIQSFLGGAPTEDLKALSQQNVSMDLATFMKLRTDAVLPLTVAEVQKLLGPHVEGLKAEERHRPVRDWILRQRQDDLDTLGLGLQGGIPNGYLVLDLSMQEALS
notes: mesothelin, human, extracellular domain (the 40 kDa fragment of the 70 kDa precursor); GenBank AY743922; Modified pSecTag2 vector containing rabbit IgG Fc; Glycosylated (made in mammalian cells); also called meso-Fc; mesothelin-Fc; source: HEK 293T, transfected, harvested from the culture supernatant, purified (Hi-trap protein A column)
  Kd: 5 nM and 5 to 10 nM
